Target: Histone H3K9me3 peptide (Homo sapiens) (UniProt P68431)
Assay: not given
Conditions: cited from earlier work

Cbx3 chromodomain, sequence (Q13185 30-88): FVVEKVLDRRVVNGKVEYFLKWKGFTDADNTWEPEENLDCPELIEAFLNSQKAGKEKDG

Substance	Kd [µM]
Cbx3 chromodomain (from UniProt Q13185)	15

Target: human Cbx3 chromodomain (residues 29–86) (human) (UniProt Q13185)
Assay: ITC; peptide solution (1–2 mM) injected into the cell with Cbx3 chromodomain (40–100 mM [sic]) in 20 mM Tris–HCl, pH 7.5, 150 mM NaCl; one-site binding model
Conditions: not given

human Cbx3 chromodomain (residues 29–86) (human), sequence (Q13185 29-86): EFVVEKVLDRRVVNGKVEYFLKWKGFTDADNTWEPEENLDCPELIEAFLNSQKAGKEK

Substance	Kd [µM]
G9a(179–190) peptide, K185 dimethylated	9
histone H1.4(18–29) peptide, K26 trimethylated	21
G9a(179–190) peptide, K185 trimethylated	14
G9a(179–190) peptide, K185 monomethylated	28
histone H1.4(18–29) peptide, K26 dimethylated	52

Reference: PMC3325965, “Structural Basis of the Chromodomain of Cbx3 Bound to Methylated Peptides from Histone H1 and G9a” (PLoS ONE, 2012)
